{"source": "paper PMC10903754", "about": "“o-Vanillin binds covalently to MAL/TIRAP Lys-210 but independently inhibits TLR2” (Journal of Enzyme Inhibition and Medicinal Chemistry, 2024)", "proteins": {"B1": {"name": "TIR domain of human MAL/TIRAP (MAL^TIR), residues 79-221 (domain or fragment, UniProt P58753 79-221, looked up)", "chain": "SSRWSKDYDVCVCHSEEDLVAAQDLVSYLEGSTASLRCFLQLRDATPGGAIVSELCQALSSSHCRVLLITPGFLQDPWCKYQMLQALTEAPGAEGCTIPLLSGLSRAAYPPELRFMYYVDGRGPDGGFRQVKEAVMRYLQTLS", "notes": "MAL (MyD88 adaptor-like protein; TIRAP), human, TIR domain, residues 79-221; construct in the vector pMCSG7; For the NMR work the same construct was 13C-15N labelled and kept in low-salt buffer (10 mM HEPES pH 7.5, 10 mM NaCl); also called WT MAL^TIR; MyD88 adaptor-like protein TIR domain; source: E. coli BL21 (DE3), purified (Ni IMAC, TEV cleavage, SEC Superdex 75)"}}, "target": "the molecule itself", "assay": "turbidity assay; MAL^TIR ~87.5-103 uM in 10 mM HEPES pH 7.5, 150 mM NaCl, 30 °C; filament formation followed by absorbance at 500 nm over time; with or without o-vanillin and analogues", "data": [{"protein": "B1", "values": [{"measurement": "binding result", "value": "binds"}]}]}
